Assay results published in publication PMC4703963, “Oxidative Dimerization of PHD2 is Responsible for its Inactivation and Contributes to Metabolic Reprogramming via HIF-1α Activation” (Scientific Reports, 2016).

B1: Flag-tagged PHD3 (natural protein, human, UniProt Q9H6Z9 1-239, looked up)
chain: MPLGHIMRLDLEKIALEYIVPCLHEVGFCYLDNFLGEVVGDCVLERVKQLHCTGALRDGQLAGPRAGVSKRHLRGDQITWIGGNEEGCEAISFLLSLIDRLVLYCGSRLGKYYVKERSKAMVACYPGNGTGYVRHVDNPNGDGRCITCIYYLNKNWDAKLHGGILRIFPEGKSFIADVEPIFDRLLFFWSDRRNPHEVQPSYATRYAMTVWYFDAEERAEAKKKFRNLTRKTESALTED
notes: PHD3, human; Flag-tagged lentiviral vector from William Kaelin; also called Flag-PHD3; source: U2OS stably expressing (lentiviral vector), in lysate
B2: PHD3, endogenous (natural protein, human (endogenous in U2OS), UniProt Q9H6Z9 1-239, looked up)
chain: B1 chain
notes: PHD3, endogenous in U2OS cells; source: endogenous, U2OS lysate

Molecular target: the molecule itself
Test: non-reducing SDS-PAGE with immunoblot; total cell lysates (1% IGEPAL, 150 mM NaCl, 50 mM Tris-HCl pH 7.9, no reducing agent) in sample buffer without β-ME; cells treated with H2O2 (50-200 uM), T-hydro (1-3 uM), diamide (0.1-1 mM), 10% FBS or expressing H-ras V12

Row | Protein | stoichiometry N
1 | B1 | 2
2 | B2 | 2
